Reference: publication PMC7404976

Target: MBP-Vip3Aa11(200-end), the C-terminal fragment of Vip3A toxin with an N-terminal 6xHis-MBP tag (Bacillus thuringiensis strain C9)
Assay: crystal structure; MBP-Vip3Aa(200-end) 7 mg/mL, hanging drop at 18 °C, 0.1 M sodium acetate pH 4.2, 0.5 M potassium formate, 0.1 M ammonium sulfate, 11% PEG4000; space group P21, four molecules in one asymmetric unit, 3.2 Å

MBP-Vip3Aa11(200-end), the C-terminal fragment of Vip3A toxin with an N-terminal 6xHis-MBP tag (domain or fragment)
stoichiometry N: 2
